In article PMC3155616 (Cell, 2011):

Target: E. coli SSB (wild type single-stranded DNA binding protein, homotetramer) (E. coli, UniProt P0AGE0 1-178)
Assay: ITC

Sequence of E. coli SSB (wild type single-stranded DNA binding protein, homotetramer) (P0AGE0 whole entry): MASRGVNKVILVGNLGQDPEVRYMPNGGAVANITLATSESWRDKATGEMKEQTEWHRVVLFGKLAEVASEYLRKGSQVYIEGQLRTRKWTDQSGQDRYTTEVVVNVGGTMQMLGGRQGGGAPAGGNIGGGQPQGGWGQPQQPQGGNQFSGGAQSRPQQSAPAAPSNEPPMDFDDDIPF

B1: E. coli RecO protein (natural protein, UniProt P0A7H3 1-242, looked up)
chain: MEGWQRAFVLHSRPWSETSLMLDVFTEESGRVRLVAKGARSKRSTLKGALQPFTPLLLRFGGRGEVKTLRSAEAVSLALPLSGITLYSGLYINELLSRVLEYETRFSELFFDYLHCIQSLAGVTGTPEPALRRFELALLGHLGYGVNFTHCAGSGEPVDDTMTYRYREEKGFIASVVIDNKTFTGRQLKALNAREFPDADTLRAAKRFTRMALKPYLGGKPLKSRELFRQFMPKRTVKTHYE
  stoichiometry N: 1 RecO per SSB C-terminal tail (four tails per tetramer)
